The values below come from publication PMC4349727, “Redox-dependent chaperone/peroxidase function of 2-Cys-Prx from the cyanobacterium Anabaena PCC7120: role in oxidative stress tolerance” (BMC Plant Biology, 2015).

One experiment concerns the target T1, Alr4641 (2-Cys-Prx) (Nostoc sp. PCC 7120 = FACHB-418, UniProt A0ACD7RYC4).
T1 construct: full length, 203 residues, 23 kD, N-terminal His-tag (pET16b), expressed in E. coli BL21pLysS; decamer/dodecamer
T1 sequence (A0ACD7RYC4 1-203): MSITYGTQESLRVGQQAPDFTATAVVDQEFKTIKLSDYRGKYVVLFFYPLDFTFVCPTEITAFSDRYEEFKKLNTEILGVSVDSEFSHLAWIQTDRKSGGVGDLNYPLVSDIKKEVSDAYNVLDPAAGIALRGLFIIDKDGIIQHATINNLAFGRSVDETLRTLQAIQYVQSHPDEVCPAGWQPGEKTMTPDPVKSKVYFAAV
In words: NTRC-dependent peroxidase assay, NADPH oxidation at […] nm. In kind it is biochemical. The note with it: 100 uM peroxide; NTRC of Anabaena PCC7120 as reductant with NADPH.

In experiment [1] the target is Alr4641 (typical 2-Cys-Prx of Anabaena PCC7120), His-tagged, wild type (Anabaena PCC7120). In words: SDS-PAGE under reducing or non-reducing conditions; 12% SDS-PAGE of purified proteins with or without DTT (10 mM); shows the inter-subunit disulfide dimer.
Experiment [2] deals with Alr4641 over-expressed in Anabaena PCC7120 (strain An4641+) (Anabaena PCC7120). In words: non-reducing SDS-PAGE with Western blot; cell free extracts of Anabaena (wild type after MV, H2O2, t-Bx or γ-radiation and recovery; An4641+; AnC56S+) on non-reducing SDS-PAGE, probed with Alr4641 antiserum; shows the disulfide dimer.
For experiment [3], the target named is Alr4641, endogenous in wild-type Anabaena PCC7120 (Anabaena PCC7120 (endogenous)). Described as above.
In experiment [4] the target is Alr4641 (typical 2-Cys-Prx of Anabaena PCC7120), His-tagged, wild type (Anabaena PCC7120). The experiment is described as follows: SPR; Autolab Esprit; about 250 response units of Alr4641 immobilised on bare gold chip by EDC-NHS; NTRC injected at 4.33, 8.66, 10.39 and 12.99 μM, 33.3 μL/min, 300 s; 20°C; 10 mM HEPES, 100 mM NaCl, pH 7.5; equilibrium analysis.

On to `CC(C)(OO)c1ccccc1` [Cux, cumeme hydroperoxide], for which the “NTRC-dependent peroxidase assay, NADPH oxidation at 340 nm” value at Alr4641 (2-Cys-Prx) was “best activity was observed with H2O2 followed by t-butyl hydroperoxide and cumeme hydroperoxide”.

As for `CC(C)(C)OO` [t-Bx, t-butyl hydroperoxide], the “NTRC-dependent peroxidase assay, NADPH oxidation at 340 nm” value at Alr4641 (2-Cys-Prx) is “best activity was observed with H2O2 followed by t-butyl hydroperoxide and cumeme hydroperoxide”.

A word on the stoichiometry N: it is a count of units in the complex or per binding partner. Take “Alr4641 (typical 2-Cys-Prx of Anabaena PCC7120), His-tagged, wild type (enzyme)”: in experiment [1], the stoichiometry N was determined as 2.

Turning to “Alr4641 over-expressed in Anabaena PCC7120 (strain An4641+) (enzyme)”, the stoichiometry N in experiment [2] was 2.

Regarding “Alr4641, endogenous in wild-type Anabaena PCC7120 (enzyme)”, the stoichiometry N in experiment [3] amounted to 2.

For orientation: Kd means the equilibrium constant for the complex coming apart. Compound “NADPH-dependent thioredoxin reductase (NTRC) from Anabaena PCC7120, His-tagged (enzyme)” registered a Kd in experiment [4] of 1040 nM.
